Measured values: patent US12099068B2, “Biomarkers for graft-versus-host disease” (Incyte Corporation, priority 2018, dated 2024)

B1: MPO (protein, UniProt P05164 165-745, looked up)
Myeloperoxidase: VTCPEQDKYRTITGMCNNRRSPTLGASNRAFVRWLPAEYEDGFSLPYGWTPGVKRNGFPVALARAVSNEIVRFPTDQLTPDQERSLMFMQWGQLLDHDLDFTPEPAARASFVTGVNCETSCVQQPPCFPLKIPPNDPRIKNQADCIPFFRSCPACPGSNITIRNQINALTSFVDASMVYGSEEPLARNLRNMSNQLGLLAVNQRFQDNGRALLPFDNLHDDPCLLTNRSARIPCFLAGDTRSSEMPELTSMHTLLLREHNRLATELKSLNPRWDGERLYQEARKIVGAMVQIITYRDYLPLVLGPTAMRKYLPTYRSYNDSVDPRIANVFTNAFRYGHTLIQPFMFRLDNRYQPMEPNPRVPLSRVFFASWRVVLEGGIDPILRGLMATPAKLNRQNQIAVDEIRERLFEQVMRIGLDLPALNMQRSRDHGLPGYNAWRRFCGLPQPETVGQLGTVLRNLKLARKLMEQYGTPNNIDIWMGGVSEPLKRKGRVGPLLACIIGTQFRKLRDGDRFWWENEGVFSMQQRQALAQISLPRIICDNTGITTVSKNNIFMSNSYPRDFVNCSTLPALNLASWREAS
B2: ANGPTL3 (protein, UniProt Q9Y5C1 17-460, looked up)
Angiopoietin-related protein 3: SRIDQDNSSFDSLSPEPKSRFAMLDDVKILANGLLQLGHGLKDFVHKTKGQINDIFQKLNIFDQSFYDLSLQTSEIKEEEKELRRTTYKLQVKNEEVKNMSLELNSKLESLLEEKILLQQKVKYLEEQLTNLIQNQPETPEHPEVTSLKTFVEKQDNSIKDLLQTVEDQYKQLNQQHSQIKEIENQLRRTSIQEPTEISLSSKPRAPRTTPFLQLNEIRNVKHDGIPAECTTIYNRGEHTSGMYAIRPSNSQVFHVYCDVISGSPWTLIQHRIDGSQNFNETWENYKYGFGRLDGEFWLGLEKIYSIVKQSNYVLRIELEDWKDNKHYIEYSFYLGNHETNYTLHLVAITGNVPNAIPENKDLVFSTWDHKAKGHFNCPEGYSGGWWWHDECGENNLNGKYNKPRAKSKPERRRGLSWKSQNGRLYSIKSTKMLIHPTDSESFE
B3: PRKRA (protein, UniProt O75569 1-313, looked up)
Interferon-inducible …: MSQSRHRAEAPPLEREDSGTFSLGKMITAKPGKTPIQVLHEYGMKTKNIPVYECERSDVQIHVPTFTFRVTVGDITCTGEGTSKKLAKHRAAEAAINILKANASICFAVPDPLMPDPSKQPKNQLNPIGSLQELAIHHGWRLPEYTLSQEGGPAHKREYTTICRLESFMETGKGASKKQAKRNAAEKFLAKFSNISPENHISLTNVVGHSLGCTWHSLRNSPGEKINLLKRSLLSIPNTDYIQLLSEIAKEQGFNITYLDIDELSANGQYQCLAELSTSPITVCHGSGISCGNAQSDAAHNALQYLKIIAERK
B4: ITGB1BP2 (protein, UniProt Q9UKP3 1-347, looked up)
Integrin beta-1-binding …: MSLLCRNKGCGQHFDPNTNLPDSCCHHPGVPIFHDALKGWSCCRKRTVDFSEFLNIKGCTMGPHCAEKLPEAPQPEGPATSSSLQEQKPLNVIPKSAETLRRERPKSELPLKLLPLNISQALEMALEQKELDQEPGAGLDSLIRTGSSCQNPGCDAVYQGPESDATPCTYHPGAPRFHEGMKSWSCCGIQTLDFGAFLAQPGCRVGRHDWGKQLPASCRHDWHQTDSLVVVTVYGQIPLPAFNWVKASQTELHVHIVFDGNRVFQAQMKLWGVINVEQSSVFLMPSRVEISLVKADPGSWAQLEHPDALAKKARAGVVLEMDEEESDDSDDDLSWTEEEEEEEAMGE
B5: B4GAT1 (protein, UniProt O43505 1-415, looked up)
Beta-1,4-glucuronyltransferase …: MQMSYAIRCAFYQLLLAALMLVAMLQLLYLSLLSGLHGQEEQDQYFEFFPPSPRSVDQVKAQLRTALASGGVLDASGDYRVYRGLLKTTMDPNDVILATHASVDNLLHLSGLLERWEGPLSVSVFAATKEEAQLATVLAYALSSHCPDMRARVAMHLVCPSRYEAAVPDPREPGEFALLRSCQEVFDKLARVAQPGINYALGTNVSYPNNLLRNLAREGANYALVIDVDMVPSEGLWRGLREMLDQSNQWGGTALVVPAFEIRRARRMPMNKNELVQLYQVGEVRPFYYGLCTPCQAPTNYSRWVNLPEESLLRPAYVVPWQDPWEPFYVAGGKVPTFDERFRQYGFNRISQACELHVAGFDFEVLNEGFLVHKGFKEALKFHPQKEAENQHNKILYRQFKQELKAKYPNSPRRC
B6: SERPINA12 (protein, UniProt Q8IW75 21-414, looked up)
Serpin A12: LKPSFSPRNYKALSEVQGWKQRMAAKELARQNMDLGFKLLKKLAFYNPGRNIFLSPLSISTAFSMLCLGAQDSTLDEIKQGFNFRKMPEKDLHEGFHYIIHELTQKTQDLKLSIGNTLFIDQRLQPQRKFLEDAKNFYSAETILTNFQNLEMAQKQINDFISQKTHGKINNLIENIDPGTVMLLANYIFFRARWKHEFDPNVTKEEDFFLEKNSSVKVPMMFRSGIYQVGYDDKLSCTILEIPYQKNITAIFILPDEGKLKHLEKGLQVDTFSRWKTLLSRRVVDVSVPRLHMTGTFDLKKTLSYIGVSKIFEEHGDLTKIAPHRSLKVGEAVHKAELKMDERGTEGAAGTGAQTLPMETPLVVKIDKPYLLLIYSEKIPSVLFLGKIVNPIGK
B7: CD48 (protein, UniProt P09326 27-220, looked up)
CD48 antigen: QGHLVHMTVVSGSNVTLNISESLPENYKQLTWFYTFDQKIVEWDSRKSKYFESKFKGRVRLDPQSGALYISKVQKEDNSTYIMRVLKKTGNEQEWKIKLQVLDPVPKPVIKIEKIEDMDDNCYLKLSCVIPGESVNYTWYGDKRPFPKELQNSVLETTLMPHNYSRCYTCQVSNSVSSKNGTVCLSPPCTLARS
B8: SIT1 (protein, UniProt Q9Y3P8 25-196, looked up)
Signaling …: DNCTDLLALGIPSITQAWGLWVLLGAVTLLFLISLAAHLSQWTRGRSRSHPGQGRSGESVEEVPLYGNLHYLQTGRLSQDPEPDQQDPTLGGPARAAEEVMCYTSLQLRPPQGRIPGPGTPVKYSEVVLDSEPKSQASGPEPELYASVCAQTRRARASFPDQAYANSQPAAS
B9: PODXL (protein, UniProt O00592 23-558, looked up)
Podocalyxin: SPSPSPSPSQNATQTTTDSSNKTAPTPASSVTIMATDTAQQSTVPTSKANEILASVKATTLGVSSDSPGTTTLAQQVSGPVNTTVARGGGSGNPTTTIESPKSTKSADTTTVATSTATAKPNTTSSQNGAEDTTNSGGKSSHSVTTDLTSTKAEHLTTPHPTSPLSPRQPTSTHPVATPTSSGHDHLMKISSSSSTVAIPGYTFTSPGMTTTLLETVFHHVSQAGLELLTSGDLPTLASQSAGITASSVISQRTQQTSSQMPASSTAPSSQETVQPTSPATALRTPTLPETMSSSPTAASTTHRYPKTPSPTVAHESNWAKCEDLETQTQSEKQLVLNLTGNTLCAGGASDEKLISLICRAVKATFNPAQDKCGIRLASVPGSQTVVVKEITIHTKLPAKDVYERLKDKWDELKEAGVSDMKLGDQGPPEEAEDRFSMPLIITIVCMASFLLLVAALYGCCHQRLSQRKDQQRLTEELQTVENGYHDNPTLEVMETSSEMQEKKVVSLNGELGDSWIVPLDNLTKDDLDEEEDTHL
B10: ICAM3 (protein, UniProt P32942 30-547, looked up)
Intercellular adhesion …: QEFLLRVEPQNPVLSAGGSLFVNCSTDCPSSEKIALETSLSKELVASGMGWAAFNLSNVTGNSRILCSVYCNGSQITGSSNITVYRLPERVELAPLPPWQPVGQNFTLRCQVEDGSPRTSLTVVLLRWEEELSRQPAVEEPAEVTATVLASRDDHGAPFSCRTELDMQPQGLGLFVNTSAPRQLRTFVLPVTPPRLVAPRFLEVETSWPVDCTLDGLFPASEAQVYLALGDQMLNATVMNHGDTLTATATATARADQEGAREIVCNVTLGGERREARENLTVFSFLGPIVNLSEPTAHEGSTVTVSCMAGARVQVTLDGVPAAAPGQPAQLQLNATESDDGRSFFCSATLEVDGEFLHRNSSVQLRVLYGPKIDRATCPQHLKWKDKTRHVLQCQARGNPYPELRCLKEGSSREVPVGIPFFVNVTHNGTYQCQASSSRGKYTLVVVMDIEAGSSHFVPVFVAVLLTLGVVTIVLALMYVFREHQRSGSYHVREESTYLPLTSMQPTEAMGEEPSRAE
B11: SOST (protein, UniProt Q9BQB4 24-213, looked up)
Sclerostin: QGWQAFKNDATEIIPELGEYPEPPPELENNKTMNRAENGGRPPHHPFETKDVSEYSCRELHFTRYVTDGPCRSAKPVTELVCSGQCGPARLLPNAIGRGKWWRPSGPDFRCIPDRYRAQRVQLLCPGGEAPRARKVRLVASCKCKRLTRFHNQSELKDFGTEAARPQKGRKPRPRARSAKANQAELENAY
B12: HCLS1 (protein, UniProt P14317 1-486, looked up)
Hematopoietic lineage …: MWKSVVGHDVSVSVETQGDDWDTDPDFVNDISEKEQRWGAKTIEGSGRTEHINIHQLRNKVSEEHDVLRKKEMESGPKASHGYGGRFGVERDRMDKSAVGHEYVAEVEKHSSQTDAAKGFGGKYGVERDRADKSAVGFDYKGEVEKHTSQKDYSRGFGGRYGVEKDKWDKAALGYDYKGETEKHESQRDYAKGFGGQYGIQKDRVDKSAVGFNEMEAPTTAYKKTTPIEAASSGTRGLKAKFESMAEEKRKREEEEKAQQVARRQQERKAVTKRSPEAPQPVIAMEEPAVPAPLPKKISSEAWPPVGTPPSSESEPVRTSREHPVPLLPIRQTLPEDNEEPPALPPRTLEGLQVEEEPVYEAEPEPEPEPEPEPENDYEDVEEMDRHEQEDEPEGDYEEVLEPEDSSFSSALAGSSGCPAGAGAGAVALGISAVAVYDYQGEGSDELSFDPDDVITDIEMVDEGWWRGRCHGHFGLFPANYVKLLE
B13: CD244 (protein, UniProt Q9BZW8 22-370, looked up)
Natural killer cell receptor …: CQGSADHVVSISGVPLQLQPNSIQTKVDSIAWKKLLPSQNGFHHILKWENGSLPSNTSNDRFSFIVKNLSLLIKAAQQQDSGLYCLEVTSISGKVQTATFQVFVFESLLPDKVEKPRLQGQGKILDRGRCQVALSCLVSRDGNVSYAWYRGSKLIQTAGNLTYLDEEVDINGTHTYTCNVSNPVSWESHTLNLTQDCQNAHQEFRFWPFLVIIVILSALFLGTLACFCVWRRKRKEKQSETSPKEFLTIYEDVKDLKTRRNHEQEQTFPGGGSTIYSMIQSQSSAPTSQEPAYTLYSLIQPSRKSGSRKRNHSPSFNSTIYEVIGKSQPKAQNPARLSRKELENFDVYS

System: plasma proteins
Experiment: Plasma proteins modulated between baseline and day 28 in responders (CR, VGPR, PR; n = 19), Example 6 (Table 13)
Assay type: in vivo, human
Conditions: plasma protein (OLINK NPX); responders (CR, VGPR, PR; n = 19); itacitinib 200 mg or 300 mg QD with corticosteroids; day 28 vs baseline
In short: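 Longitudinal comparison, day 28 versus baseline, with steroid-naive (N=10) and steroid-refractory (N=18) patients combined. Proteins measured by OLINK proximity extension, log2 normalized protein expression. Differences tested by t tests, ANOVA, Pearson correlation, P<0.05 significant.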

**Q.** B1 was tested. Which “Fold Change, Decreased Expression from Baseline to Day 28” value (“Fold Change, Decreased Expression” below) did it give?
**A.** Its value is −1.8431.

**Q.** B2 was tested. Which “Fold Change, Increased Expression from Baseline to Day 28” value (shortened to “Fold Change, Increased Expression”) did it give?
**A.** The value was 1.2673.

**Q.** Which “Fold Change, Decreased Expression” value does the source give for B3 here?
**A.** The value was −1.2761.

**Q.** With B4 as the molecule, how does the “Fold Change, Decreased Expression” value read?
**A.** The value was −1.8787.

**Q.** How did the “Fold Change, Increased Expression” value turn out when B5 was run?
**A.** Its value is 1.2795.

**Q.** B6 was tested. Which “Fold Change, Increased Expression” value did it give?
**A.** Its value is 1.567.

**Q.** With B7 as the molecule, how does the “Fold Change, Decreased Expression” value read?
**A.** The value was −1.6022.

**Q.** For B8, which “Fold Change, Decreased Expression” value is on record?
**A.** The value was −1.5501.

**Q.** How did the “Fold Change, Increased Expression” value turn out when B9 was run?
**A.** The value was 1.2014.

**Q.** B10 was tested. Which “Fold Change, Decreased Expression” value did it give?
**A.** Its value is −1.464.

**Q.** For B11, which “Fold Change, Decreased Expression” value is on record?
**A.** The value was −1.3214.

**Q.** How did the “Fold Change, Decreased Expression” value turn out when B12 was run?
**A.** The value was −1.455.

**Q.** With B13 as the molecule, how does the “Fold Change, Decreased Expression” value read?
**A.** Its value is −1.5176.
